Measured values reported in US20230338564A1, “NEODEGRADER CONJUGATES” (Orum Therapeutics, Inc., priority 2020, published 2023).

System: RD-ES cell line
Assay: In vitro antiproliferation assay, General Procedure 2 (CCK-8)
Format: cell-based
Settings: Ewing’s sarcoma
Text: Cell Culture: Cell lines were obtained from the American Type Culture Collection (ATCC, Manassas, VA, USA) or Deutsche Sammlung von Mikroorganismen und Zellkulturen (DSMZ, Braunschweig, Germany) and maintained according to the culturing conditions specified by ATCC or DSMZ. Cells were thawed out and maintained in culture for at least two passages before proceeding with experimental conditions.
Cytotoxicity assays: For adherent cell lines, the cells were dissociated with enzyme-free PBS-based cell dissociation buffer (Gibco, USA) and plated on tissue culture treated 96-well flat bottom polystyrene plates (Costar, Corning, USA) at appropriate cell densities depending on doubling time of the cells. 18 hours after plating, cells were treated with test articles at appropriate concentrations starting at 100 nM and diluted in 4-fold serial dilutions. For suspension cell lines, the cells were seeded on the same day of treatment and cells were treated as described above. Adherent cells were treated for 5 days and suspension cells were treated for 3 days. Cell proliferation was assessed using the Cell Counting Kit-8 (CCK-8, Dojindo Laboratories, Japan) and measurements were obtained using the Promega GloMax Discover plate reader (Promega, USA). Data were analyzed using GraphPad Prism software (GraphPad Software, San Diego, CA). All data points were obtained from technical triplicates and the experiments were validated using three biological replicates.

B1: Ontuxizumab-Compound (Ia) (conjugate, chains of the INN, looked up)
VH: QVQLQESGPGLVRPSQTLSLTCTASGYTFTDYVIHWVKQPPGRGLEWIGYINPYDDDTTYNQKFKGRVTMLVDTSSNTAYLRLSSVTAEDTAVYYCARRGNSYDGYFDYSMDYWGSGTPVTVSS
VL: DIQMTQSPSSLSASVGDRVTITCRASQNVGTAVAWLQQTPGKAPKLLIYSASNRYTGVPSRFSGSGSGTDYTFTISSLQPEDIATYYCQQYTNYPMYTFGQGTKVQIK
modifications: conjugated to Compound (Ia)
- IC50: 27.3 pM
